Here are results for seven molecules from patent US20180086849A1 (Hoffmann-La Roche, published 2018).

In test [1] the target is T1, Human EGFR (immobilized on CM5 chip) (human, UniProt P00533 25-645, limits assumed).
T1 construct: also called tumor antigen
The test is described as follows: SPR (Biacore T100): construct captured at 200 nM on immobilised human EGFR, then CD3 fusion at 2000 nM.

The target of test [2] is human MCSP (Melanoma-associated Chondroitin Sulfate Proteoglycan) on cells (human, UniProt Q6UVK1 30-2322). The test is described as follows: cell-based or functional assay.
The target of a further test is Her2 on KPL-4 cells (human (human cell line KPL-4), UniProt P04626 23-1255). Briefly: cell-based or functional assay.
The target of test [3] is T2, human CEA (Carcinoembryonic antigen) on cells (human, UniProt P06731 35-685).
T2 sequence (looked up): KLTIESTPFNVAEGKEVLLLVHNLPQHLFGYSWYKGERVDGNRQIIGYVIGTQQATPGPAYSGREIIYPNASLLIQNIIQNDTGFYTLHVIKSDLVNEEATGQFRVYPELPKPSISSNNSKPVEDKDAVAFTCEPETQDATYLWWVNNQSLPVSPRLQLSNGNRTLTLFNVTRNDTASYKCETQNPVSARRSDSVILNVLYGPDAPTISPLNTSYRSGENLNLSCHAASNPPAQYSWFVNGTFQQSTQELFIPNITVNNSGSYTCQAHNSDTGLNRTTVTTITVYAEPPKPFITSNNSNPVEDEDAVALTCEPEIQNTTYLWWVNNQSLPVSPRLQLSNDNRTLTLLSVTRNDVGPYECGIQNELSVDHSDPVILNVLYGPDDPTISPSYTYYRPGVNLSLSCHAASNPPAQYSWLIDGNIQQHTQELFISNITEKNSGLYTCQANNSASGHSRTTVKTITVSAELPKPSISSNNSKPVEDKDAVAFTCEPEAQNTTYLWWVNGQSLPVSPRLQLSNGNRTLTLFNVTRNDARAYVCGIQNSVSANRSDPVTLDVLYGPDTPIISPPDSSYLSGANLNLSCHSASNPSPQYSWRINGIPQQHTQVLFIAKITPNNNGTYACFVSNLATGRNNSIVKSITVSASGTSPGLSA
Briefly: cell-based or functional assay.

human MCSP (Melanoma-associated Chondroitin Sulfate Proteoglycan) on cells, sequence (Q6UVK1 30-2322): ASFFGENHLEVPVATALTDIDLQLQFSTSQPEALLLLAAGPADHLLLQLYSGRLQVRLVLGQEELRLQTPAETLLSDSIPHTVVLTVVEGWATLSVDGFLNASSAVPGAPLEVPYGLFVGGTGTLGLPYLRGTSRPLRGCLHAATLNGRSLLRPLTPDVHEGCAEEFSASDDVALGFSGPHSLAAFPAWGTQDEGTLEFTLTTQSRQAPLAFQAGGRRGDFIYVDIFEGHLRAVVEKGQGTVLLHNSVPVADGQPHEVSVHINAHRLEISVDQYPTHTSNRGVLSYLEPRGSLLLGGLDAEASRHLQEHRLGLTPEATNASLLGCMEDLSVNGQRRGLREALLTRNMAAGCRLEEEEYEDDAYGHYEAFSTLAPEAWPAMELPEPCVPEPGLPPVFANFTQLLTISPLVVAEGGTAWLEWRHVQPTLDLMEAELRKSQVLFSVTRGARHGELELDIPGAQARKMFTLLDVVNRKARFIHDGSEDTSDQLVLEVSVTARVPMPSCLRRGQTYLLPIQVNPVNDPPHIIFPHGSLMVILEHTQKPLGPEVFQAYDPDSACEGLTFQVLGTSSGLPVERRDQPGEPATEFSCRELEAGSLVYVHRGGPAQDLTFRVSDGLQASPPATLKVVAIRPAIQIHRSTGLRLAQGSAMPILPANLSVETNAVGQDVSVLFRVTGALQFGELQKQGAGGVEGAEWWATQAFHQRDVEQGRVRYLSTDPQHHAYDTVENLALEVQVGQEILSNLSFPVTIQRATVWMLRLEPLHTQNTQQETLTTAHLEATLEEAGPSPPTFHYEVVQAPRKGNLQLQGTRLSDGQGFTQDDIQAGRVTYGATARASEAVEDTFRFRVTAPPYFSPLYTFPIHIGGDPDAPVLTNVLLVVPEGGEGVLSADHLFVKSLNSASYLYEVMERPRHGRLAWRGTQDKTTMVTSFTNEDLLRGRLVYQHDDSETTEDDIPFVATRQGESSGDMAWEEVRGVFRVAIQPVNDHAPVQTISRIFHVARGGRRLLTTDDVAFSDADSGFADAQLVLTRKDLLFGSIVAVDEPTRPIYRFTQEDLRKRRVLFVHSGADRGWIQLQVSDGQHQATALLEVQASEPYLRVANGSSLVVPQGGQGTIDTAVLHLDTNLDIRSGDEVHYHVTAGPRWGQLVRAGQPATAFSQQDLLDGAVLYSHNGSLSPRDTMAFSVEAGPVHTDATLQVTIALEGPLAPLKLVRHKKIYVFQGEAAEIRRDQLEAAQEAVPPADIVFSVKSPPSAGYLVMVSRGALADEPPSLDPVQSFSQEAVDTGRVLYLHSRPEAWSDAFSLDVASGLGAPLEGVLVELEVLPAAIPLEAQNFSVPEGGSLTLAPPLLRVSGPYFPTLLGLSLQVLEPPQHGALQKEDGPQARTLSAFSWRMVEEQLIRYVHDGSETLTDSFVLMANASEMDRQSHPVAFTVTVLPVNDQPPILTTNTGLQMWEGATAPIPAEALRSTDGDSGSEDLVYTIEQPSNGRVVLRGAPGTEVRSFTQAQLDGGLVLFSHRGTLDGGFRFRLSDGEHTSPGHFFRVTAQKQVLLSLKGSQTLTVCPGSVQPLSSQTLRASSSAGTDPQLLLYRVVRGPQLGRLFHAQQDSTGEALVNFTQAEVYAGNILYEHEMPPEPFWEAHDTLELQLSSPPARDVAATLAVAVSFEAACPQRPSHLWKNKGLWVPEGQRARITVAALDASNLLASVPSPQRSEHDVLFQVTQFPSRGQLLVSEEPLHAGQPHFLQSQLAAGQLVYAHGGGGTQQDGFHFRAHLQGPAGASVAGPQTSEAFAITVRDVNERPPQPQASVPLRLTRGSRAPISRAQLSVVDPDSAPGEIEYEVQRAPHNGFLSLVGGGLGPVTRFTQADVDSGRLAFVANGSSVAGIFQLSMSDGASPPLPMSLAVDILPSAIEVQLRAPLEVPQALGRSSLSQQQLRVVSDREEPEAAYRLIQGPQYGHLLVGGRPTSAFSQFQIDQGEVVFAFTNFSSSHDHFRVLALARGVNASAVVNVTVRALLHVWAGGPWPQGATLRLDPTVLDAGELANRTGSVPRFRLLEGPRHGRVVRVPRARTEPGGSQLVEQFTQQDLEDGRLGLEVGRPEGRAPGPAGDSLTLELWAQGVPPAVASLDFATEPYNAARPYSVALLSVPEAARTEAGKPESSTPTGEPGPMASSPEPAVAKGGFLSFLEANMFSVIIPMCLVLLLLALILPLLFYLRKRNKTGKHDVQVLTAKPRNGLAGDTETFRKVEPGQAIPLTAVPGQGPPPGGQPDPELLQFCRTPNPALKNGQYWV

B1: 1+1 IgG scFab, one armed inverted (anti-EGFR/anti-huCD3) (bispecific antibody)
chain 1: not shown
chain 2: not shown
chain 3: EVQLVESGGGLVQPGGSLRLSCAASGYSFTGYTMNWVRQAPGKGLEWVALINPYKGVSTYNQKFKDRFTISVDKSKNTAYLQMNSLRAEDTAVYYCARSGYYGDSDWYFDVWGQGTLVTVSSASTKGPSVFPLAPSSKSTSGGTAALGCLVKDYFPEPVTVSWNSGALTSGVHTFPAVLQSSGLYSLSSVVTVPSSSLGTQTYICNVNHKPSNTKVDKKVEPKSCDKTHTCPPCPAPEAAGGPSVFLFPPKPKDTLMISRTPEVTCVVVDVSHEDPEVKFNWYVDGVEVHNAKTKPREEQYNSTYRVVSVLTVLHQDWLNGKEYKCKVSNKALGAPIEKTISKAKGQPREPQVCTLPPSRDELTKNQVSLSCAVKGFYPSDIAVEWESNGQPENNYKTTPPVLDSDGSFFLVSKLTVDKSRWQQGNVFSCSVMHEALHNHYTQKSLSLSPGK
Take B1: the binding result in test [1] is recorded as “binds”.

B2: aVH TCB (Crossfab fragment with a CD3 binding moiety and two aVH moieties binding MCSP, P329G LALA) (bispecific antibody)
light: SASYRKR
heavy 1: HQYYTYPLFT
heavy 2: QAVVTQEPSLTVSPGGTVTLTCGSSTGAVTTSNYANWVQEKPGQAFRGLIGGTNKRAPGTPARFSGSLLGGKAALTLSGAQPEDEAEYYCALWYSNLWVFGGGTKLTVLSSASTKGPSVFPLAPSSKSTSGGTAALGCLVKDYFPEPVTVSWNSGALTSGVHTFPAVLQSSGLYSLSSVVTVPSSSLGTQTYICNVNHKPSNTKVDKKVEPKSC
For B2, in test [2], the “EC50 [pM] 24 h of T-cell mediated killing of MV-3 cells” value is 9120 pM and the “EC50 [pM] 48 h of T-cell mediated killing of MV-3 cells” value worked out at 8970 pM.

B3: Darpin TCB (Crossfab fragment with a CD3 binding moiety and two Darpin moieties binding HER2, P329G LALA) (bispecific antibody)
light: EVQLVESGGGLVQPGGSLRLSCAASGFNIKDTYIGWVRRAPGKGTELVARIYPTNGYTRYADSVKGRFTISADTSKNTAYLQMNSLRAEDTAVYYCARTSWGGWLSGDYWGQGTLVTVSSDKTHTCPPCPAPEAAGGPSVFLFPPKPKDTLMISRTPEVTCVVVDVSHEDPEVKFNWYVDGVEVHNAKTKPREEQYNSTYRVVSVLTVLHQDWLNGKEYKCKVSNKALGAPIEKTISKAKGQPREPQVCTLPPSRDELTKNQVSLSCAVKGFYPSDIAVEWESNGQPENNYKTTPPVLDSDGSFFLVSKLTVDKSRWQQGNVFSCSVMHEALHNHYTQKSLSLSPGK
heavy 1: not shown
heavy 2: QAVVTQEPSLTVSPGGTVTLTCGSSTGAVTTSNYANWVQEKPGQAFRGLIGGTNKRAPGTPARFSGSLLGGKAALTLSGAQPEDEAEYYCALWYSNLWVFGGGTKLTVLSSASTKGPSVFPLAPSSKSTSGGTAALGCLVKDYFPEPVTVSWNSGALTSGVHTFPAVLQSSGLYSLSSVVTVPSSSLGTQTYICNVNHKPSNTKVDKKVEPKSC
As for B3, in the test with Her2 on KPL-4 cells, the “EC50 [pM] 24 h of T-cell mediated killing of KPL-4 cells” value came out at 376 pM and the “EC50 [pM] 48 h of T-cell mediated killing of KPL-4 cells” value amounted to 235 pM.

B4: 2+1 IgG scFab, P329G LALA (anti-EGFR/anti-huCD3) (bispecific antibody)
chain 1: QVQLVQSGAEVKKPGSSVKVSCKASGFTFTDYKIHWVRQAPGQGLEWMGYFNPNSGYSTYAQKFQGRVTITADKSTSTAYMELSSLRSEDTAVYYCARLSPGGYYVMDAWGQGTTVTVSSASTKGPSVFPLAPSSKSTSGGTAALGCLVKDYFPEPVTVSWNSGALTSGVHTFPAVLQSSGLYSLSSVVTVPSSSLGTQTYICNVNHKPSNTKVDKKVEPKSCDKTHTCPPCPAPEAAGGPSVFLFPPKPKDTLMISRTPEVTCVVVDVSHEDPEVKFNWYVDGVEVHNAKTKPREEQYNSTYRVVSVLTVLHQDWLNGKEYKCKVSNKALGAPIEKTISKAKGQPREPQVCTLPPSRDELTKNQVSLSCAVKGFYPSDIAVEWESNGQPENNYKTTPPVLDSDGSFFLVSKLTVDKSRWQQGNVFSCSVMHEALHNHYTQKSLSLSPGK
chain 2: DIQMTQSPSSLSASVGDRVTITCRASQGINNYLNWYQQKPGKAPKRLIYNTNNLQTGVPSRFSGSGSGTEFTLTISSLQPEDFATYYCLQHNSFPTFGQGTKLEIKRTVAAPSVFIFPPSDEQLKSGTASVVCLLNNFYPREAKVQWKVDNALQSGNSQESVTEQDSKDSTYSLSSTLTLSKADYEKHKVYACEVTHQGLSSPVTKSFNRGEC
chain 3: not shown
notes: also called 2+1 IgG scFab (EGFR)
In the case of B4, in test [1], the binding result is “binds”.

B5: 1+1 IgG scFab, one armed (anti-EGFR/anti-huCD3) (bispecific antibody)
chain 1: not shown
chain 2: QVQLVQSGAEVKKPGSSVKVSCKASGFTFTDYKIHWVRQAPGQGLEWMGYFNPNSGYSTYAQKFQGRVTITADKSTSTAYMELSSLRSEDTAVYYCARLSPGGYYVMDAWGQGTTVTVSSASTKGPSVFPLAPSSKSTSGGTAALGCLVKDYFPEPVTVSWNSGALTSGVHTFPAVLQSSGLYSLSSVVTVPSSSLGTQTYICNVNHKPSNTKVDKKVEPKSCDKTHTCPPCPAPEAAGGPSVFLFPPKPKDTLMISRTPEVTCVVVDVSHEDPEVKFNWYVDGVEVHNAKTKPREEQYNSTYRVVSVLTVLHQDWLNGKEYKCKVSNKALGAPIEKTISKAKGQPREPQVCTLPPSRDELTKNQVSLSCAVKGFYPSDIAVEWESNGQPENNYKTTPPVLDSDGSFFLVSKLTVDKSRWQQGNVFSCSVMHEALHNHYTQKSLSLSPGK
chain 3: DIQMTQSPSSLSASVGDRVTITCRASQGINNYLNWYQQKPGKAPKRLIYNTNNLQTGVPSRFSGSGSGTEFTLTISSLQPEDFATYYCLQHNSFPTFGQGTKLEIKRTVAAPSVFIFPPSDEQLKSGTASVVCLLNNFYPREAKVQWKVDNALQSGNSQESVTEQDSKDSTYSLSSTLTLSKADYEKHKVYACEVTHQGLSSPVTKSFNRGEC
Consider B5, for which the binding result in test [1] is “binds”.

B6: 1+1 IgG scFab (anti-EGFR/anti-huCD3) (bispecific antibody)
chain 1: DIQMTQSPSSLSASVGDRVTITCRASQGINNYLNWYQQKPGKAPKRLIYNTNNLQTGVPSRFSGSGSGTEFTLTISSLQPEDFATYYCLQHNSFPTFGQGTKLEIKRTVAAPSVFIFPPSDEQLKSGTASVVCLLNNFYPREAKVQWKVDNALQSGNSQESVTEQDSKDSTYSLSSTLTLSKADYEKHKVYACEVTHQGLSSPVTKSFNRGEC
chain 2: not shown
chain 3: DKTHTCPPCPAPEAAGGPSVFLFPPKPKDTLMISRTPEVTCVVVDVSHEDPEVKFNWYVDGVEVHNAKTKPREEQYNSTYRVVSVLTVLHQDWLNGKEYKCKVSNKALGAPIEKTISKAKGQPREPQVCTLPPSRDELTKNQVSLSCAVKGFYPSDIAVEWESNGQPENNYKTTPPVLDSDGSFFLVSKLTVDKSRWQQGNVFSCSVMHEALHNHYTQKSLSLSPGK
B6: the binding result in test [1] is listed as “binds”.

B7: 2+1 IgG Crossfab, inverted; VL/VH exchange (CH1A1A/V9), anti-CEA/anti-huCD3 (bispecific antibody)
chain 1: EVQLVESGGGLVQPGGSLRLSCAASGYSFTGYTMNWVRQAPGKGLEWVALINPYKGVSTYNQKFKDRFTISVDKSKNTAYLQMNSLRAEDTAVYYCARSGYYGDSDWYFDVWGQGTLVTVSSASVAAPSVFIFPPSDEQLKSGTASVVCLLNNFYPREAKVQWKVDNALQSGNSQESVTEQDSKDSTYSLSSTLTLSKADYEKHKVYACEVTHQGLSSPVTKSFNRGEC
chain 2: not shown
chain 3: QVQLVQSGAEVKKPGASVKVSCKASGYTFTEFGMNWVRQAPGQGLEWMGWINTKTGEATYVEEFKGRVTFTTDTSTSTAYMELRSLRSDDTAVYYCARWDFAYYVEAMDYWGQGTTVTVSSASTKGPSVFPLAPSSKSTSGGTAALGCLVKDYFPEPVTVSWNSGALTSGVHTFPAVLQSSGLYSLSSVVTVPSSSLGTQTYICNVNHKPSNTKVDKKVEPKSCDKTHTCPPCPAPEAAGGPSVFLFPPKPKDTLMISRTPEVTCVVVDVSHEDPEVKFNWYVDGVEVHNAKTKPREEQYNSTYRVVSVLTVLHQDWLNGKEYKCKVSNKALGAPIEKTISKAKGQPREPQVCTLPPSRDELTKNQVSLSCAVKGFYPSDIAVEWESNGQPENNYKTTPPVLDSDGSFFLVSKLTVDKSRWQQGNVFSCSVMHEALHNHYTQKSLSLSPGK
chain 4: DIQMTQSPSSLSASVGDRVTITCKASAAVGTYVAWYQQKPGKAPKLLIYSASYRKRGVPSRFSGSGSGTDFTLTISSLQPEDFATYYCHQYYTYPLFTFGQGTKLEIKRTVAAPSVFIFPPSDEQLKSGTASVVCLLNNFYPREAKVQWKVDNALQSGNSQESVTEQDSKDSTYSLSSTLTLSKADYEKHKVYACEVTHQGLSSPVTKSFNRGEC
Regarding B7, in test [3], the “EC50 of T cell-mediated killing (LDH release) of LS-174T cells, human PBMCs, 28 h” value stood at 0.955 nM and the “EC50 of T cell-mediated killing (LDH release) of MKN-45 cells, human PBMCs, 28 h” value was 0.243 nM.
